Test results as given in US20230312718A1 (Regeneron, published 2023).

Target: T1, MUC16 on OVCAR-3 cells (human, UniProt Q8WXI7 1-14507)
T1 construct: whole, on cells
Assay: FACS binding to OVCAR-3 cells

B1: BSMUC16/CD3-001 (bispecific antibody, V domains shown)
VH 1: QVQLVESGGGLVKPGGSLRLSCAASGFTFSNYYMSWVRQAPGKGLEWISYISGRGSTIFYADSVKGRITISRDNAKNSLFLQMNSLRAEDTAVYFCVKDRGGYSPYWGQGTLVTVSS
VH 2: EVQLVESGGGLVQPGRSLRLSCAASGFTFDDYSMHWVRQAPGKGLEWVSGISWNSGSKGYADSVKGRFTISRDNAKNSLYLQMNSLRAEDTALYYCAKYGSGYGKFYHYGLDVWGQGTTVTVSS
VL: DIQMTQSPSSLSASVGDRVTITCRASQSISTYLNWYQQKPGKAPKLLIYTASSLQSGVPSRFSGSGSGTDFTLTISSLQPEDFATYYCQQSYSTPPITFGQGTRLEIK
notes: It was biotinylated in the ELISA and 89Zr-DFO labelled in the PET study; also called REGN4018; ubamatamab
B1: binds.
